Results as given in the supplement of paper PMC9170038.

Test system: K4 kissing-loop RNA reporter
Assay: apparent KD of K4 kissing-loop reporter; higher = weaker reporter binding
Conditions: Eterna round: R107
Experimental: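 RNA-MaP round R107: designed RNA switches with theophylline, tryptophan, arginine or FMN aptamers are transcribed on-chip within common flanks. They are titrated with a labelled K4 kissing-loop RNA reporter in RNA-MaP buffer (100 mM Tris pH 7.5, 80 mM KCl, 4 mM MgCl2), without ligand or with the indicated ligand. Median apparent KD per design.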

[1] = input ligand: theophylline 20 uM
[2] = input ligand: tryptophan 2.4 mM
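Also: bound reporter read as fluorescence of individual clusters on recovered sequencing chips by microscopy, with normalized cluster intensities fitted with a binding model.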

Sequence	apparent KD of K4 kissing-loop reporter (input ligand: FMN 200 uM) [nM]	apparent KD of K4 kissing-loop reporter (input ligand: arginine 13.2 mM) [nM]	apparent KD of K4 kissing-loop reporter (input ligand: none) [nM]	apparent KD of K4 kissing-loop reporter [1] [nM]	apparent KD of K4 kissing-loop reporter [2] [nM]
GGCCACGGGCGAGGAUAUGGGCAUGAUUCAUCCUGGAGUGAUGUUCCAGGUCCUACGUUUCGAGCACCAGAAGGCGUUUGUUGCU [Biazaqure]	166	521	646	489	524
GGUAUCUAUACAGAUACCAGUCGUAUAGGUCGAUUACAGGUUAGUGAUGUUAACCUGUACGACCCUUGGCAGCUGUAUAAUAAUA [Theo B Ex t2]	62	60.3	59.9	51.7	61.9
AAUACACUGUCGGCCGCCACUCUCGGCUGCAGUGUGCAGGGACAUGAGUGAUGUUUAUGUCGCGUGAGGACCGGGACUGAUGUAU [KL-SSTryp-B1 #analogue]	326	257	312	326	209
GCAACAUUGGAAGGAUAUCAUUCUGAGUGAUGUUCAGGGUUCAGCUAACGAAAGUUAGUUGUACCAUGAGAAGGUCUAAUGUUGC [Omei KL FMN B SS A v4]	332	646	1610	1220	1010
UGUCAUUGGUCUGAUACCAGCUUGAUCGGUAAACGAUCUACUGGAGUGAUGUUCCUAAAUAGCCCUUGGCAGCAGACCGAUGACU [TheoBS 4 #SwitchBubble #StaticStem]	197	157	180	123	173
UUGGAAAGACCAGAACAGGGCCUUAUCUGGGAGGAUAUGCUGGAGGGCAGAAGGCCCAGUGAUGUUGGGCCUUGUGCUCGUUCUA [Ainanti]	165	125	139	137	145
AGCCUGAUAUAAGGAUAUCCGGACCGAGUAACUGAGUGAUGUUCAGGUGAAUAAUGUCUCACAUUGGGAGAAGGUAUUUCAGCGA [theeternabot_sameState_KL_FMN_B_21]	232	182	251	276	225
AGAACUGUCUGAGAUACCAGCCGAGGAGUGAUGUUCCGGCUCGACGAAACGUCGAGCCACGGCCCUUGGCAGCUCAGACAGUUCA [Omei KL Theo B SS A v1]	1360	287	647	1060	455
AGUGCAUGCUCGGCCGCCACUCAGAAGAAGAUAGAAGUGAUGUUUCUAAUGAUGAGAAUAAUAAAGAGGACCGGGAGAUGUGCAA [First try]	122	125	149	164	116
GCCCUUCAGGUCGGAGUGAUGUUCCAAUGGAAGGAUAUCCGGGCUCGGAGAAGGUCCAAUUGUGUCUUGUUAAGGUGCUCACUAC [theeternabot_sameState_KL_FMN_A_46]	251	221	215	203	223
UGACUGGACUGAAGGAGCGAGCGAGACAAAGUCUCGAAUUUUCAGUGAUGUUGAUAUAUAACUCAGGUAGGUCGCAGUCUAGUCU [ArgBS 8 #SwitchBubble #StaticStem]	395	423	543	438	441
AAUGCAUAGUGAAGGAGCGCGAUAAGCAGUGAUGUUGCUUAGUUAUUAGUGUUUAUUUAUACGCAGGUAGGUCGCACUUUGCAUA [JR_ExcArginiB_Sub018]	115	103	109	105	107
UGAUACCAGACGGCCGCCACUGCACCAGUCAAUGACUGAGUGUAGUAUUGCUCAGUGAUGUUGAGUAGGACCGGGUCUGGUAUCU [Mod of Eli's TrypBX 8]	109	113	108	128	115
GCACUCGAAAGAGUGCCUCUCGCCAUCACGUAGGAUAUCUGGAAACAGAGAAGGAUGGCAGUGAUGUUGCUUUCGAUGGCGAGAG	165	137	180	174	188
UGGAGUUGACGAAAAGUCAACUCCUGAGAAGGAGCGGACGAAAGUCCAGGUAGGUCGCUCACUGCCAGUGAUGUUGGUAAAUAAA [#OpenEnded 1 - Direct theophylline transfer]	89.5	175	113	144	82.8
UGUGUUUACCUGACUCAGUGAUGUUGAGAAGGAGCGUGCAAAUGCACAGGUAGGUCGCUCAACCUAAAUUCAGGUGAGCACUAAA	321	261	323	234	169

Sequence	apparent KD of K4 kissing-loop reporter (input ligand: FMN 200 uM) [nM]	apparent KD of K4 kissing-loop reporter (input ligand: arginine 13.2 mM) [nM]	apparent KD of K4 kissing-loop reporter (input ligand: none) [nM]	apparent KD of K4 kissing-loop reporter [1] [nM]	apparent KD of K4 kissing-loop reporter [2] [nM]
AAGUGCCUCAAGAGGCAGUAUCUGCCUCAACGAGGACCGGUACGGCCGCCACUCGAAUAAUAGAGUGAUGUUCUAAGAGGCACAA [AK1.5 SS Tryptophan A]	461	284	483	261	432
AUAGGCAUAGCCCGAGUGAUGUUCGACGAUACCAGCCUCGAUAGAGGCCCUUGGCAGCGUAAAUGAUCAUGAAGCCAAGGAAUAA [whbob_Ex_Theo_A_th69]	342	313	442	353	313
CCCAAGGGCGAACCGGUAUGAUCACCGGAUACCAGAGGCGAAAGCCUCCCUUGGCAGCCGGUUGUAGUGAUGUUACACUGGUUCU	91.4	74.6	88.7	118	87.7
CGCCAGUGAUGUUGGCGCAGGUUGCGGGAAGGAGCGCGCGUAAGCGCAGGUAGGUCGCCUGCAGGCCAGUGAUGUUGGCAAUCUG [Same State Arginine A GF 30]	130	110	143	111	116
GCAGCAAAUAAACGAGUGAUGUUCGACGAUACCAGCCUCGAUAGAGGCCCUUGGCAGCGUAAAUGAUCACAAAGCCAAGGGCUGC [#SwitchBubble 1]	332	375	396	366	362
AACUUUUAAUGAAUUACAUUUUAUUUUUCUCGAGGACCGGUACGGCCGCCACUCGUACUAUAGUGAUGUUAUAGAUAAGUCCUAA [JR_ExcTryptoA_Sub020]	124	182	142	179	68.7
UCUGCUGUAUAUGAUACCAGCAGUGAGAGACGAGAAGUAUAGUGAUGUUAUAUGAGAGAAUGCCCUUGGCAGCGUGUGCGUGUGG [SSTheophylB.aA]	96.3	94.3	74.4	102	64.8
GACAUACCUAUGGAGGGCCGAUCGAACAAACGAGGACCGGUACGGCCGCCACUCGUGGGCAGUGAUGUUGACCCUGGGAGGUAAG	373	410	544	236	598
UGUCAUUGGUCGGCCGCCACUAGGACCGGGUAUAACCCAGUGAUGUUGGUAAAUACGGCCGCCACUAGGACCGGGACCGAUGACU [TrypBS 14 #DoubleAptamer #SwitchBubble #K4Middle]	263	233	255	280	173
UUCUACGAGUGAUGUUCGUAGUGUAAUAGUUAGGAUAUCGUUUUUUCGAGAAGGAACUUCGAAGUGAUACGAAAGUAUCGCUUCG [FMN A 11]	122	117	126	132	136
CGCAGUGAUGUUGCGAGUUAAUUCAGGGAAGGAGCGCCACAGAUGGCAGGUAGGUCGCCCACGCAGUGAUGUUGCGUAUUCGGGU [Exclusion Arginine A GF 4]	94.3	96.8	95.7	111	80.6
GUGCAGUGAUGUUGCACGAGGAAAGACGAUACCAGCCGUAAAUAAGGCCCUUGGCAGCGUAGGCCAGCAUAAAGUAUGCUAGUCU [Oresbelaen]	120	107	111	89.2	99
CGCGCCCAGCCGGAUACCAGUGACCCGCUGGGAACCGCGGGCCCAGAGUGAUGUUCGGGACACCCUUGGCAGCCGCCUGGGCGGU [#2 Same State - Theophylline B Attempt #10 (HarryS)]	2380	576	1270	576	1570
CCAUCGCUAUUCGAUACCAGUCAGGAGGUCUAUGACCUCCUAAUGGAGUGAUGUUCCUUAGACCCUUGGCAGCGAAUAGUGAUGG [#01 K4 Theophylline B Same State]	509	480	569	338	534
GGAUAGGACAGAGGAUAUGGUGCUAGGCAAGAAUAACUUGUCUAGCAAUCCAUGAGGAGUGAUGUUCCAGAAGGCUGUCCUAUCG [FmnBX 3 - #SwitchBubble #StraticStem #DoubleMagnetSystem]	440	132	137	136	118
AAUGUGCAGGGAAGGAGCGUAGUCCAGUGCUGUUGGAGUUAGAUACCAGUGAUGUUGGUUAUACAGGUAGGUCGCCCUAGAGCGC [whbob_Ex_Arginine_B_2th162]	114	119	124	141	96.3
